53 sequences from the supplement of paper PMC10567573 can be followed below.

± gives the standard deviation.

A short description of the series: protein stability index of a GFP-peptide fusion (GPS, HEK-293T) (PSI 1-6); higher = more stable. Conditions: c terminus: a fixed tail appended.
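Note: 24-mer peptide tiles fused after GFP, lentivirally expressed, FACS-sorted into six equal bins by GFP/DsRed ratio, decoded by Illumina sequencing, PSI is the read-weighted mean bin number.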

On to ENTAETITRVLYEVFIEWGISAKV [ZBED1], for which the protein stability index by setting is: (treatment: DMSO) 2.82 ± 0.088; (treatment: MLN4924 1 uM, 8 h) 2.78 ± 0.72.

Take LLGATKRSMVFKDVLLLGNDYIVP [HNF4A]: the protein stability index worked out at 2.28 ± 0.34 (treatment: DMSO) and 2.3 ± 0.11 (treatment: MLN4924 1 uM, 8 h). Regarding ETWNPFKLQYQLRNVRERIAKNLV [GOLPH3L], the protein stability index amounted to 2.37 ± 0.34 (treatment: DMSO) and 2.37 ± 0.24 (treatment: MLN4924 1 uM, 8 h). For KGISSHSRSSLMPLRNDVDKRGET [SLC2A12] the same measures were 5 ± 0.39 and 5.06 ± 0.22. As to SFTQEQVADIDGQYAMTRAQRVRA [CTNNB1], the protein stability index (treatment: DMSO) was 4.62 ± 0.19 and the protein stability index (treatment: MLN4924 1 uM, 8 h) amounted to 4.62 ± 0.14.

As to VKSKAKKTVDKHSDEYKIRRERNN [CEBPB], the protein stability index was determined as 4.78 ± 0.39 (treatment: DMSO) and 4.79 ± 0.2 (treatment: MLN4924 1 uM, 8 h). As for VTSQERHCLQQRRKSVPGPGNRTC [ADAMTSL2], the protein stability index (treatment: DMSO) amounted to 4.92 ± 0.42 and the protein stability index (treatment: MLN4924 1 uM, 8 h) worked out at 4.824 ± 0.006. The matching figures for DNDPRDLIGDFSKGYLFHTVAGKH [CDC25A]: 3.2 ± 0.13 and 3.41 ± 0.19. For YLKKNHEEEMNALRGQVGGEINVE [KRT17], the protein stability index reads like this: (treatment: DMSO) 4.39 ± 0.23; (treatment: MLN4924 1 uM, 8 h) 4.75 ± 0.12. The sequence IFSGAASLGYGTNVAATGISQYED [APBB1IP] registered a protein stability index (treatment: DMSO) of 3.83 ± 0.24 and a protein stability index (treatment: MLN4924 1 uM, 8 h) of 3.67 ± 0.16. For ERSSFYSCAGGRLFQQSCPTGLVF [CHIT1] the same measures were 1.99 ± 0.15 and 2.13 ± 0.18. The matching figures for DQEHNVAALKQAIKDKEAPLHVAQ [TEKT4]: 5.11 ± 0.19 and 5.18 ± 0.15.

On to WGFVHPRLLSVPELCHHVAEVWVS [RETREG3], for which the protein stability index runs as follows: (treatment: DMSO) 3.04 ± 0.64; (treatment: MLN4924 1 uM, 8 h) 2.63 ± 0.57. For AYLVPYLVLLIIIGIPLFFLELAV [SLC6A17] the same measures were 3.83 ± 0.52 and 2.87 ± 0.28.

Consider SLLRRIKGKLFTWNILKTIALGQM [SLC35F2], for which the protein stability index worked out at 2.31 ± 0.63 (treatment: DMSO) and 2.38 ± 0.23 (treatment: MLN4924 1 uM, 8 h). The matching figures for HGPDLYPKFKKWCDDYFFIAHRGE [CPOX]: 2 ± 0.15 and 2.1 ± 0.27. In turn, ISSVGGEAMFCDFPKINHGILYDE [CFHR2] displayed a protein stability index (treatment: DMSO) of 3.38 ± 0.26.

As for AMTGTFPAYGMSPSLSTITSTSSS [DVL3], the protein stability index came to 3.68 ± 0.24 (treatment: DMSO) and 3.61 ± 0.17 (treatment: MLN4924 1 uM, 8 h).

As for YQYIQSRFYRSPEVLLGTPYDLAI [DYRK1B], the protein stability index amounted to 2.18 ± 0.41 (treatment: DMSO) and 2.29 ± 0.35 (treatment: MLN4924 1 uM, 8 h).

For RHLTSRHQEAEMAQNAVRLHYGLP [CTNNB1], the protein stability index (treatment: DMSO) stood at 3.71 ± 0.14 and the protein stability index (treatment: MLN4924 1 uM, 8 h) worked out at 3.73 ± 0.25.

Take GAQFEGEKGRALQIRDWRGGRLEN [ZSWIM9]: the protein stability index is 4.24 ± 0.23 (treatment: DMSO) and 3.87 ± 0.57 (treatment: MLN4924 1 uM, 8 h). On to QRLKAVIVIQTYYRQWHAKIFVEN [IQUB], for which the protein stability index runs as follows: (treatment: DMSO) 2.83 ± 0.5; (treatment: MLN4924 1 uM, 8 h) 2.79 ± 0.79.

Consider SHKGAEELALALKGNTTLQQLDLR [LRRC45], for which the protein stability index (treatment: DMSO) came out at 3.99 ± 0.18 and the protein stability index (treatment: MLN4924 1 uM, 8 h) stood at 4.17 ± 0.65. Take VSSEDSFVCQCFEGYILREDGKTC [MATN2]: the protein stability index is, setting by setting: (treatment: DMSO) 3.04 ± 0.26; (treatment: MLN4924 1 uM, 8 h) 3.08 ± 0.57. Take GGTLFSLEEGSSFWNQGLTWKVLF [CLCN6]: the protein stability index came out at 2.7 ± 0.46 (treatment: DMSO) and 2.6 ± 0.81 (treatment: MLN4924 1 uM, 8 h). For TEGFTSGRHYWEVEVGDKTHWAVG [TRIM39] the same measures were 2.85 ± 0.44 and 2.93 ± 1.1. Consider PETFWIQRAPQLPTWWPLPTQVPA [SPAG8], for which the protein stability index is 2.42 ± 0.19 (treatment: DMSO) and 2.52 ± 0.15 (treatment: MLN4924 1 uM, 8 h).

On to MREYKLVVLGSGGVGKSALTVQFV [RAP1B], for which the protein stability index stood at 2.51 ± 0.53 (treatment: DMSO) and 2.8 ± 0.75 (treatment: MLN4924 1 uM, 8 h).

With KVIYLDDDVIVQGDIQELYDTTLA [GLT8D2], the protein stability index (treatment: DMSO) was determined as 2.65 ± 0.36 and the protein stability index (treatment: MLN4924 1 uM, 8 h) turned out to be 2.94 ± 0.29. For LRVRELQRKVDGIQKAYDELRLQS [CCDC89] the same measures were 3.16 ± 0.13 and 3.42 ± 0.39.

As for QDLVELYLTNCEKLSAKSLQTLRS [ZER1], the protein stability index runs as follows: (treatment: DMSO) 2.1 ± 0.2; (treatment: MLN4924 1 uM, 8 h) 2.54 ± 0.21.

On to PQGPPASPSCPEEALAATWEQPWA [PXN], for which the protein stability index runs as follows: (treatment: DMSO) 4.15 ± 0.39; (treatment: MLN4924 1 uM, 8 h) 3.96 ± 0.27. Regarding WVDITDVPPGDYLFQVVINPNFEV [LOXL2], the protein stability index runs as follows: (treatment: DMSO) 2.94 ± 0.71; (treatment: MLN4924 1 uM, 8 h) 2.91 ± 0.98. With DLDFKHHNYKEMRQLMKVVNEMCP [CPXM2], the protein stability index came out at 2.93 ± 0.21 (treatment: DMSO) and 2.66 ± 0.31 (treatment: MLN4924 1 uM, 8 h). The matching figures for LFQFSNCSQGQQLATFSSDWEIQE [CCDC3]: 3.12 ± 0.45 and 2.94 ± 0.33.

As for ELSPLALGRFSLTPAEGDTEEDDG [CDC25B], the protein stability index came to 5.44 ± 0.18 (treatment: DMSO) and 5.44 ± 0.43 (treatment: MLN4924 1 uM, 8 h).

Consider IDREVDLMMRGVKHHNLEGLRKRI [IQUB], for which the protein stability index stood at 3.29 ± 0.32 (treatment: DMSO) and 3.62 ± 0.27 (treatment: MLN4924 1 uM, 8 h). For GAHWMRQLVSFQKLKLTNNHLDPF [TBX5] the same measures were 2.18 ± 0.21 and 2.19 ± 0.45.

For the sequence VQLSQIQGLIGSVEEQLAQLRCEM [KRT17], the protein stability index by setting is: (treatment: DMSO) 3.04 ± 0.36; (treatment: MLN4924 1 uM, 8 h) 2.79 ± 0.32. Turning to RGSETTYESSADIAGDEGTQIPAD [TAF7L], the protein stability index reads like this: (treatment: DMSO) 5.58 ± 0.12; (treatment: MLN4924 1 uM, 8 h) 5.62 ± 0.12. For QSPDEKPLVALDTDSDDDFDMSRY [FAM219A] the same measures were 5.44 ± 0.26 and 5.46 ± 0.23. The matching figures for LQVIKALKSSGLCESLTYGLPFIL [M1AP]: 3.04 ± 0.94 and 2.81 ± 0.83. Consider LLFACSPPPASQPVVKALFGASAA [CDC25A], for which the protein stability index stood at 2.44 ± 0.12 (treatment: DMSO) and 2.35 ± 0.12 (treatment: MLN4924 1 uM, 8 h).

For ADWTQGLPWRFEELLTCSHWPSFF [TEX19], the protein stability index by setting is: (treatment: DMSO) 2.54 ± 0.67; (treatment: MLN4924 1 uM, 8 h) 2.6 ± 0.58. For PQDYKKRLSVELTSSLFRTEPMAW [CTNNB1] the same measures were 2.67 ± 0.24 and 2.8 ± 0.21. The matching figures for KSITSAMNELQHDLDVVSDALAKV [TPH1]: 4.4 ± 0.18 and 4.47 ± 0.12.

GQQSDTAQLELYQLQVESNSSQLL [SCARA5] showed a protein stability index (treatment: DMSO) of 4.12 ± 0.13 and a protein stability index (treatment: MLN4924 1 uM, 8 h) of 4.16 ± 0.15.

For the sequence MNSLVSWQLLLFLCATHFGEPLEK [KISS1], the protein stability index stood at 3.18 ± 0.67 (treatment: DMSO) and 3.07 ± 0.51 (treatment: MLN4924 1 uM, 8 h). QNQNITLDCEGTTNKMKSPETKQR [KMT2E]: the protein stability index by setting is: (treatment: DMSO) 5.37 ± 0.12; (treatment: MLN4924 1 uM, 8 h) 5.3 ± 0.12. In the case of ESASSQSGCLRISIQKLSNESRYM [NECAB1], the protein stability index is 2.76 ± 0.2 (treatment: DMSO) and 2.78 ± 0.31 (treatment: MLN4924 1 uM, 8 h). For SLGYGFVNYSDPNDADKAINTLNG [ELAVL3] the same measures were 3.76 ± 0.22 and 3.98 ± 0.18.

Consider YYYTKVMSELFLHTPSDTGVSFQA [PKD2L1], for which the protein stability index is, setting by setting: (treatment: DMSO) 2.74 ± 0.59; (treatment: MLN4924 1 uM, 8 h) 2.67 ± 0.64. For LGHPALSQEEGKSALEDQGSNPSS [PPFIA4] the same measures were 5.59 ± 0.21 and 5.25 ± 0.91.
